Results: publication PMC13120683
“And” between values parts separate entries of the source, which are not always exact repeats. Identical values can stand only once. Each block holds one substance with its values, some of them ahead of it.

Legend:
[1] = target: MyoF-Motor (MyoF lacking its WD40 tail domain, a.a. 1–1265, C-terminal biotin–FLAG tag), heavy chain (T. gondii); experiment: negative-stain electron microscopy; negatively stained images of purified myosin constructs with co-purified light chain
[2] = target: MyoF-Tail (coiled-coil region, linker and WD40 domain, a.a. 987–1953, C-terminal biotin–FLAG tag) (T. gondii); experiment: SEC; analytical; 0.25 mg/ml MyoF-Tail on Superdex 10/300 GL; 10 mM imidazole pH 7.4, 300 mM NaCl, 1 mM EGTA, 1 mM DTT; standards ferritin 440 kDa and thyroglobulin 660 kDa
[3] = target: MyoF-Motor (MyoF lacking its WD40 tail domain, a.a. 1–1265, C-terminal biotin–FLAG tag), heavy chain (T. gondii); experiment: thermal denaturation (calmodulin-binding) assay
[4] = target: MyoF-Motor (MyoF lacking its WD40 tail domain, a.a. 1–1265, C-terminal biotin–FLAG tag), heavy chain (T. gondii)
[5] = target: Toxoplasma gondii actin (TgAct1) filaments (T. gondii) (UniProt P53476); experiment: single-molecule motility assay (fluorescence microscopy); full-length MyoF mixed 1:5 with Alexa Fluor 647–streptavidin; TgAct1 filaments (jasplakinolide-stabilised or unstabilised) or skeletal actin-fascin bundles (phalloidin or jasplakinolide) held on the flow cell; 2 mM MgATP; 37°C
[6] = target: Toxoplasma gondii actin (TgAct1) filaments (T. gondii) (UniProt P53476)
[7] = target: full-length MyoF with a C-terminal biotin–FLAG tag, heavy chain (T. gondii); experiment: negative-stain electron microscopy; negatively stained images of purified myosin constructs with co-purified light chain

Substance: MyoF-Motor (MyoF lacking its WD40 tail domain, a.a. 1–1265, C-terminal biotin–FLAG tag), heavy chain (domain or fragment)
stoichiometry N [1]: 2

Substance: TgCam (calmodulin), untagged, co-expressed in Sf9 cells (natural protein)
stoichiometry N (calmodulin light chains per heavy chain) [3]: 3
in vitro gliding filament motility speed of MyoF-Motor bound to only TgCam (skeletal actin) [4]: 1.2 µm/s

Substance: full-length MyoF co-purified with TgCam (complex)
pause time at filament ends [5]: 1.5 s
run length (λ) of single full-length MyoF complexes on jasplakinolide-stabilized TgAct1 filaments [6]: 1.14 µm
velocity of single full-length MyoF complexes on jasplakinolide-stabilized TgAct1 filaments [6]: 1.5 µm/s

The next lines start with the values.

stoichiometry N [2]: > 6
Substance: MyoF-Tail (coiled-coil region, linker and WD40 domain, a.a. 987–1953, C-terminal biotin–FLAG tag) (domain or fragment)

stoichiometry N [7]: 3 heads and 6 heads
Substance: full-length MyoF with a C-terminal biotin–FLAG tag, heavy chain (natural protein)
